Laboratory results as given in patent publication US20030073142A1 (published 2003).

B1: test peptide number 539.8 (human IgE CH1 nonamer, Leu Leu Thr Val Ser Gly Ala Trp Ala) (peptide)
peptide: LLTVSGAWA
B2: test peptide number 539.11 (human IgE CH2 nonamer, Trp Leu Ser Asp Arg Thr Tyr Thr Cys) (peptide)
peptide: WLSDRTYTC
B3: test peptide number 539.12 (human IgE CH1 nonamer, Trp Val Asp Asn Lys Thr Phe Ser Val) (peptide)
peptide: WVDNKTFSV
B4: test peptide number 539.10 (human IgE CH1 nonamer, Thr Gln Ser Pro Ser Val Phe Pro Leu) (peptide)
peptide: TQSPSVFPL
B5: test peptide number 539.9 (human IgE CH4 nonamer, Gln Leu Pro Asp Ala Arg His Ser Thr) (peptide)
peptide: QLPDARHST

Biological target: human MHC-I HLA-A2.1 expressed on RMA-S-A2.1 cells (murine TAP-deficient RMA-S cells engineered to express … (human, UniProt A*02:01))
Assay: cell-based or functional assay

Binder	HLA-A2.1-specific fluorescence intensity (FACS, surface HLA-A2.1 on TAP-deficient RMA-S-A2.1 cells after overnight incubation with 50 micromoles per liter peptide) [log]
B1	1
B2	1
B3	1
B4	1
B5	1
